Biological target: T1, Atg7, endogenous in mouse heart, Q9D906
T1 chain: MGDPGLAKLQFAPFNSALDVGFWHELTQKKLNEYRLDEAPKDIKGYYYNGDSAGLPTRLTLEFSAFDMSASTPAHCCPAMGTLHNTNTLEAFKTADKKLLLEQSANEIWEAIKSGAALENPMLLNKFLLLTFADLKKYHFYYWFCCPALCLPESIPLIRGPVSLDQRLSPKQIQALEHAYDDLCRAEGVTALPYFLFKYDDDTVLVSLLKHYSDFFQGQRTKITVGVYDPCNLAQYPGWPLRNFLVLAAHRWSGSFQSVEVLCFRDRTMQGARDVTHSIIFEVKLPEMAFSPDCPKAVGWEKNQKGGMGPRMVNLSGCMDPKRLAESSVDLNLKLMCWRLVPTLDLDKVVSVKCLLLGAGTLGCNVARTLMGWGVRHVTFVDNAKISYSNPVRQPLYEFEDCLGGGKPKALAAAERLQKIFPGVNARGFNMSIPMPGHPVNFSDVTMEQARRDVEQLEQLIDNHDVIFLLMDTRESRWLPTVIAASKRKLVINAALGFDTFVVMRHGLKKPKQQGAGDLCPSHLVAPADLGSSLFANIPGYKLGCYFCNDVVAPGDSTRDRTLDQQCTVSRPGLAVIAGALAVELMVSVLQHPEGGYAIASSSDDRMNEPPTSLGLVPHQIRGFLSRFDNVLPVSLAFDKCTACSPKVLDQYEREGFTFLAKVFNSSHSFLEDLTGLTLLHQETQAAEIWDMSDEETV
Experiment: coimmunoprecipitation with anti-FLAG-agarose beads, immunoblot for Atg7, quantified
Details: chain shown with the change, Tg-Flag-Trx1 C35S mouse heart, n = 4, read off a plot

B1: Trx1 (wild type) C35S (protein)
chain: MVKQIESKTAFQEALDAAGDKLVVVDFSATWCGPSKMIKPFFHSLSEKYSNVIFLEVDVDDCQDVASECEVKCMPTFQFFKKGQKVGEFSGANKEKLEATINELV
Q: How did the response (Arbitrary unit) (ischemia for 20 minutes) turn out when B1 was run?
A: The response (Arbitrary unit) was 0.8.

Q: What about the response (Arbitrary unit) (sham operation) of the same binder?
A: Its response (Arbitrary unit) is 0.55.

From PMC9888389
